# Measurements: patent publication US20080248043A1
# How the values were obtained:
# [1] = target: antigen of Table 4 (native or denatured; not named); test: native conditions; 10 µg/ml
# [2] = target: antigen of Table 4 (native or denatured; not named); test: denatured conditions; 10 µg/ml
# [3] = target: antigen of Table 4 (native or denatured; not named); test: native conditions; dilution 1:5
substance,measurement,setting,value
Cont,OD (read-out not given),[1],0.738
same,OD (read-out not given),[2],0.146
same,OD (read-out not given),[3],0.052
